The text below walks through data of publication PMC4804166, “Different states of synaptotagmin regulate evoked versus spontaneous release” (Nature Communications, 2016).

This experiment concerns the target T1, preformed t-SNARE heterodimers (syntaxin 1A and SNAP-25B) in PS-free proteoliposomes (rat | mouse, UniProt P32851 1-288; P60879-1 1-206).
T1 construct: syntaxin-1A, rat, full-length cDNA; SNAP-25B, mouse; the sentence 'cDNA encoding full-length rat syntaxin-1A, mouse SNAP-25B and mouse synaptobrevin-2' is read as full length for all three; also called t-SNAREs; t-SNARE vesicles; source: pTrcHis vector, purified by the N-terminal His6-tag; reconstituted into PS-free vesicles
Kind of experiment: co-flotation; 11 uM syt cytoplasmic domain mixed with 45 ul PS-free t-SNARE vesicles in 25 mM HEPES-KOH pH 7.4, 100 mM KCl, 10% glycerol, 1 mM dithiothreitol; 0.2 mM EGTA or 1 mM free Ca2+; RT 45 min; Accudenz gradient, 287,000g; SDS-PAGE, Coomassie blue, densitometry. To be noted: both partners purified.

T1 sequence (P32851 whole entry, chain 1 of 2): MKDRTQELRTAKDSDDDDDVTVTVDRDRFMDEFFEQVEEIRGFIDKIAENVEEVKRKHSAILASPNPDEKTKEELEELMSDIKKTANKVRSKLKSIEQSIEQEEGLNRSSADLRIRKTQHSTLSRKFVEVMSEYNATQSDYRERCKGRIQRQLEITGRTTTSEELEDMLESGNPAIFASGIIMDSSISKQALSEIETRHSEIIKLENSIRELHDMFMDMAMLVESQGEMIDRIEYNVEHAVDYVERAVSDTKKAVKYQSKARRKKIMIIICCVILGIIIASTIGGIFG
T1 sequence (P60879 whole entry, chain 2 of 2): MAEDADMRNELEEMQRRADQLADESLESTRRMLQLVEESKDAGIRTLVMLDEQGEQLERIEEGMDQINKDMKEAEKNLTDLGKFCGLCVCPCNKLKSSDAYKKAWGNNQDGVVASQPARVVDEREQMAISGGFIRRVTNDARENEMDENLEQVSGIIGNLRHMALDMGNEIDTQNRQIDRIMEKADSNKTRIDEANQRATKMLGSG

B1: wild-type cytoplasmic domain of synaptotagmin 1 (residues 96-421) (domain or fragment, rat, UniProt P21707 96-421, looked up)
chain: GGKNAINMKDVKDLGKTMKDQALKDDDAETGLTDGEEKEEPKEEEKLGKLQYSLDYDFQNNQLLVGIIQAAELPALDMGGTSDPYVKVFLLPDKKKKFETKVHRKTLNPVFNEQFTFKVPYSELGGKTLVMAVYDFDRFSKHDIIGEFKVPMNTVDFGHVTEEWRDLQSAEKEEQEKLGDICFSLRYVPTAGKLTVVILEAKNLKKMDVGGLSDPYVKIHLMQNGKRLKKKKTTIKKNTLNPYYNESFSFEVPFEQIQKVQVVVTVLDYDKIGKNDAIGKVFVGYNSTGAELRHWSDMLANPRRPIAQWHTLQVEEEVDAMLAVKK
notes: synaptotagmin 1, rat, cytoplasmic domain with the tandem C2-domains C2A and C2B, residues 96-421; the D374 of the original cDNA was corrected to glycine; The native linker between C2A and C2B is residues 264-272, SAEKEEQEK; Residue 374 is glycine after correction of the cDNA; also called WT syt; syt
B1: the binding result was “binds”.
